# Assay results: doi:10.1101/2022.07.20.500776v2
# B1: Vibrio alkaline phosphatase (VAP) (Vibrio sp. G15-21) (protein)
# chain: AEIKNVILMIGDGMGPQQVGLLETYANQAPNSIYKGNKTAIYQLAQEGVIGSSLTHPEDAIVVDSACSATMLATGIYSSSEVIGIDSQGNHVETVLEKAKKAGKATGLVSDTRLTHATPASFAAHQPHRSLENQIASDMLATGADVMLSGGLRHWIPKSTNDKGETYKQLEKLTQGDVYLKSKRKDDRNLLTEAEKDGYQLAFNRNMLDDAKGDKLLGLFAYSGMDDGIAYSNKKKSGERTQPSLKEMTQKALNILSKDEDGFFLMVEGGQIDWAGHSNDAGTMLHELLKFDEAIQTVYEWAKDREDTIVIVTADHETGSFGFSYSSNDLPKPQKRSGEAFADRDYAPNFNFGAFDILDGLYNQKQSYYGMISEFQKLDKSLQTPEKLAEIVNKNSEFPITAEQAKNVLASKPNPYRLAQHKYLSAEEVPAINDFDAFFPYNDRGNLLAREQATGQNIVWGTGTHTHTPVNVFAWGPAEKILPVSKIMHHSELGEYIKQQVN
# Substrate: O=[N+]([O-])c1ccc(OP(=O)(O)O)cc1
# Experiment: purified protein
# Conditions: pH 8.0, 100 mM Tris-HCl, 1 mM MgCl2, 10 °C, no added NaCl
protein,measurement,value
B1,Km,7.6 ± 1.8 µM
same,kcat,231 ± 15 s⁻¹
